This note sets out measurements from patent US20170101466A1.

Where only a bound is given, the exact number is not on record here.

Experiment [1] concerns the target soluble human BLyS (human) (UniProt Q9Y275). In words: DELFIA competition, Eu-hBLyS binding to coated BR3.
Experiment [2] has as its target soluble mouse BLyS (mouse) (UniProt Q9WU72). Kind of experiment: DELFIA competition, Eu-mBLyS binding to coated BR3.
Experiment [3] concerns the target soluble human BLyS (human) (UniProt Q9Y275). In words: DELFIA competition, Eu-hBLyS binding to coated BCMA.
The target is the same in experiment [4]. Kind of experiment: DELFIA competition, Eu-hBLyS binding to coated TACI.
Experiment [5] deals with soluble mouse BLyS (mouse) (UniProt Q9WU72). In words: DELFIA competition, Eu-mBLyS binding to coated BCMA.
Experiment [6] has the same target. In words: DELFIA competition, Eu-mBLyS binding to coated TACI.

Consider AMG623, for which the IC50 in experiment [1] was 0.0093 nM; in experiment [2], 0.147 nM; in experiment [3], less than 0.0003 nM; in experiment [4], less than 0.0003 nM; in experiment [5] it was 0.0115 nM; in experiment [6] it was less than 0.0003 nM.

For TACI-Ig (Fc fusion), the IC50 in experiment [1] came out at 0.159 nM; in experiment [2] it was 0.515 nM; in experiment [3], 0.112 nM; in experiment [4], 0.0127 nM; in experiment [5], 0.784 nM; in experiment [6] it was 0.0158 nM.
